B1: SEQ ID NO 38 (designed binder)
chain: MGSWTEFQSRLDAIHSRLRALGGSEAELAAFEKEIAAFESELQAYKGKGNPEVELLRDDAAFIRHFLQAYRHN
B2: SEQ ID NO 41 (designed binder)
chain: B1 chain with T5F, S9D, D12T, H15N, S16E, R19S, L55T, D58S, H65R
B3: SEQ ID NO 42 (designed binder)
chain: B1 chain with T5Y, Q8E, S16E, R19H, L55N, D58G
B4: SEQ ID NO 39 (designed binder)
chain: B1 chain with T5Q, Q8D, S9D, D12N, H15K, S16A, R19Q, L55D, H65R
B5: SEQ ID NO 40 (designed binder)
chain: B1 chain with T5Y, S9N, D12H, S16E, R19N
B6: SEQ ID NO 43 (designed binder)
chain: B1 chain with T5Y, Q8N, S9H, H15S, S16K, R19N, L55E, D58G
B7: SEQ ID NO 44 (designed binder)
chain: MGSWFEFENRLHAIVHRLGALGGSEAELAAFEKEIAAFESELQAYKGKGNPEVETLRADAAFIRHYLQAYRHN
B8: SEQ ID NO 48 (designed binder)
chain: MGSWYAFKDYLADIKGWLEALGGSEAELAFFEIFIARFELELQAYKGKGNPEVEALRKEAAAIRDELQAYRHN
B9: SEQ ID NO 46 (designed binder)
chain: MGSWTIFKEWLAFIKTDLEALGGSEAELAFFEGWIASFEMELQKYKGKGNPEVEALRKEAAAIRDELQAYRHN
B10: SEQ ID NO 47 (designed binder)
chain: MGSWVMFKWLLADIKSHLEALGGSEAELAFFEGFIAAFETHLQVYKGKGNPEVEALRKEAAAIRDELQAYRHN
B11: SEQ ID NO 14 (designed binder)
chain: MGSWYEFRHRLWAIDQRLYALGGSEAELAAFEKEIAAFESELQAYKGKGNPEVEGLREAAAFIRAKLQAYRHN
B12: SEQ ID NO 16 (designed binder)
chain: B11 chain with Y5F, R8N, D15N, Q16E, G55R, E58S, A59M, A65Y
B13: SEQ ID NO 18 (designed binder)
chain: B11 chain with R8H, H9Y, W12H, G55E, E58I, A59K, A65D, K66R
B14: SEQ ID NO 13 (designed binder)
chain: B11 chain with Y5V, R8A, H9N, Y19F, G55H, E58D, A59Q, A65H
B15: SEQ ID NO 15 (designed binder)
chain: B11 chain with R8S, H9M, G55A, E58A, A59K, F62Y, A65W
B16: SEQ ID NO 17 (designed binder)
chain: B11 chain with R8G, G55Y, A59T, F62H, A65T, K66R
B17: SEQ ID NO 12 (designed binder)
chain: B11 chain with Y5V, R8G, G55K, E58Q, A59R, A65F, K66R
B18: SEQ ID NO 21 (designed binder)
chain: MGSWTEFTYRLSAIEWRLWALGGSEAELAWFEQKIAFFEDFLQYYKGKGNPEVEALKHEAGAILNELMAYRHN
B19: SEQ ID NO 23 (designed binder)
chain: MGSWTEFVGRLAAIEFRLWALGGSEAELAWFEAHIAFFEDYLQWYKGKGNPEVEALREEAGAIMEELKAYRHN
B20: SEQ ID NO 24 (designed binder)
chain: MGSWTEFYSRLEAIWVRLQALGGSEAELAMFEDRIAHFEWFLQQYKGKGNPEVEALHEEAIAIRKELAAYRHN
B21: SEQ ID NO 20 (designed binder)
chain: MGSWYEFDLRLHAIYDRLVALGGSEAELAAFEKEIAAFESELQAYKGKGNPEVEILRDNAAYIRQMLQAYRHN
B22: SEQ ID NO 22 (designed binder)
chain: B21 chain with Y5A, L9H, Y15R, D16E, V19H, D58G, Q65A, M66L
B23: SEQ ID NO 56 (designed binder)
chain: MGSWYEFGHRLWAIDQRLYALGGSEAELAAFEKEIAAFESELQAYKGKGNPEVEYLRETAAHIRTRLQAYRHNGGGGSHHHHHH
notes: E. coli, IMAC and HPLC purified
B24: SEQ ID NO 57 (designed binder)
chain: B23 chain with G8H, H9Y, W12H, Y55E, E58I, T59K, H62F, T65D
notes: as for B23
B25: SEQ ID NO 58 (designed binder)
chain: MGSWAEFKQRLAAIKTRLEALGGSEAELAAFLGEIWAFEMELAAYKGKGNPEVEALGREAAAIRMELQAYRHNGGGGSHHHHHH
notes: E. coli, IMAC and HPLC purified; also called His-fusion of bb10
B26: SEQ ID NO 186 (designed binder)
chain: B1 chain with Q8E, S9Q, D12E, S16N, R19Q, L55E, D58N
B27: SEQ ID NO 184 (designed binder)
chain: B1 chain with T5Y, Q8D, S9D, D12N, S16D, R19Q, L55D, H65R
notes: also called pb06
B28: SEQ ID NO 185 (designed binder)
chain: B1 chain with T5N, Q8K, S9N, S16K, R19N, L55N
B29: SEQ ID NO 183 (designed binder)
chain: B1 chain with T5K, Q8D, S9D, D12N, H15K, S16A, R19Q, L55D, H65R
B30: SEQ ID NO 181 (designed binder)
chain: B1 chain with T5N, Q8H, S9D, D12N, S16A, R19H, L55N, H65R

Changes are numbered by the printed parent chain.

T4 sequence (Q08722 19-139 limits assumed): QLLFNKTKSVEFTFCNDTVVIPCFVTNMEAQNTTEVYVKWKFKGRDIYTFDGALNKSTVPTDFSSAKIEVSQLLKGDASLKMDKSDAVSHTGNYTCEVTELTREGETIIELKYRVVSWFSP
T3 sequence (Q07011 24-186 limits assumed): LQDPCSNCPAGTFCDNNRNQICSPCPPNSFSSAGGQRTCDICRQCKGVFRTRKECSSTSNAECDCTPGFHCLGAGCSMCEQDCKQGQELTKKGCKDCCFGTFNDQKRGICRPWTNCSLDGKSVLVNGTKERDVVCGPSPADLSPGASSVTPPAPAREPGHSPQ

One experiment deals with T1, PD-L1-Fc (UniProt Q9NZQ7 19-238).
T1 construct: purified recombinant target-Fc protein; also called FC-PD-L1; not shown: Fc
T1 sequence (Q9NZQ7 19-238 limits assumed): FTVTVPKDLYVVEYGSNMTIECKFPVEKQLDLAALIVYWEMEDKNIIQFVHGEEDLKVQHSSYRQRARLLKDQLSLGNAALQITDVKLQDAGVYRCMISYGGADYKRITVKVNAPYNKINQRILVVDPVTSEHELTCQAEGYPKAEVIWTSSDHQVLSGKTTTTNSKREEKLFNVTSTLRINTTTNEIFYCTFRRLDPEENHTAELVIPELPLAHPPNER
The experiment can be described thus: phage ELISA, target-Fc against non-specific control. Here is the method: (§1) Selections were also performed using F1, F2, F3, C1 & C2 trinucleotide phosphoramidite libraries. In most cases, libraries were pooled prior to use in selection. By combining equal volumes of the individual libraries, Pool F (libraries F1, F2 and F3) and Pool C (libraries C1 and C2) were generated. These libraries were used in selections for DBDpp binders to 4-1BB/CD137 as well as a larger panel of purified recombinant “target”-Fc proteins, including CD47, CTLA4, DR5, KIR, LAG3, OX40, PD1, PD-L1 and TIM3. (Many of these targets are considered immuno-regulatory factors (Pardoll et al., Nat. Rev. Cancer 12:252-264 (2012)). After incubation of the target with the pools of DBDpp phage libraries, bound phage-target complexes were captured and separated from unbound phage with protein A beads (target proteins were Fc fusions). After three rounds of selection, rescued phage clones were screened by ELISA for binding to the selected target.
(§2) For each target, approximately 90 DBDpp phage clones were screened by ELISA for binding to the target protein and as well as a non-specific control (e.g., IgG1-Fc). […] In some instances, for the ELISA screening plate in which the majority of DBDpp clones were positive, the entire plate was sequenced.
A general note: An ELISA detects its analyte on a solid surface through an enzyme-linked reagent.
As for B1, the “ELISA ratio (target to background)” value amounted to 8.68 ratio.
Same read-out and setting: under B2 stands 6.01 ratio; under B3, 4.88 ratio.
For B4, the “ELISA ratio (target to background)” value amounted to 7.41 ratio.
On to B5, for which the “ELISA ratio (target to background)” value came to 6.34 ratio.
Consider B6, for which the “ELISA ratio (target to background)” value was found to be 2.98 ratio.
As to B7, the “ELISA ratio (target to background)” value stood at 2.76 ratio.

In the next experiment the target is T2, PD1-Fc (UniProt Q15116 25-167).
T2 construct: purified recombinant target-Fc protein; not shown: Fc
T2 sequence (Q15116 25-167 limits assumed): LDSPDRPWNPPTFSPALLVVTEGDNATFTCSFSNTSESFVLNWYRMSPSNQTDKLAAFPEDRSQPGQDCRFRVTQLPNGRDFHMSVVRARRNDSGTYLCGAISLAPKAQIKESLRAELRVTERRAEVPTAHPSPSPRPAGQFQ
Described as above. Here is the method:
as §1, §2
Consider B8, for which the “ELISA ratio (target to background)” value worked out at 3.29 ratio.
On the same count and under the same terms, under B9 stands 17.1 ratio; under B10, 8.13 ratio.

Another experiment concerns the target T3, recombinant, biotinylated, Human 4-1BB/TNFRSF9/CD137-Fc (human, UniProt Q07011 24-186, biotinylated (F2NNK selection)).
T3 construct: also called 4-1BB/CD137; not shown: Fc
The experiment is described as above. The protocol: as §1, §2
Consider B11, for which the “ELISA ratio (target to background)” value is 13 ratio.
On the same count and under the same terms, under B12 stands 11.9 ratio; under B13, 7.26 ratio; under B14, 16.1 ratio.
Still for that read-out and setting: under B15 stands 12 ratio; under B16, 7.71 ratio; under B17, 20.6 ratio.

A further experiment has as its target T4, CD47-Fc (UniProt Q08722 19-139).
T4 construct: purified recombinant target-Fc protein; not shown: Fc
The experiment is described as above. The protocol:
as §1, §2
Regarding B18, the “ELISA ratio (target to background)” value stood at 12.5 ratio.
In the case of B19, the “ELISA ratio (target to background)” value came to 8.23 ratio.
The same measure, in the same setting: under B20 stands 4.58 ratio.
Turning to B21, the “ELISA ratio (target to background)” value was 14.1 ratio.
Take B22: the “ELISA ratio (target to background)” value is 11.7 ratio.

Another experiment has as its target T5, CD137-Fc-His6 fusion protein.
T5 construct: Made in HEK293 cells, IMAC purified; also called CD137 target protein
The experiment is described as follows: biolayer interferometry (ForteBio), CD137-Fc-His6 immobilized via protein A, steady state fit. Here is the method: The binding of the eight his-tagged DBDpp ligands (SEQ ID NO:51-58) to the CD137 target protein was assessed using biolayer interferometry (ForteBio, Menlo Park, Calif.) according to established methods. The binding assay was constructed by immobilizing the CD137-Fc-His6 via protein A and then incubating in solutions of each of the DBDpp ligands for 5 minutes to measure the association (binding) phase. The sensors were then placed in buffer to monitor the dissociation phase and the complete sensorgrams (time in seconds on the X-axis and nm on the Y-axis) are shown in FIGS. 12A, 12C, 12E, 12G, 12I, 12K, 12M, and 12O for DBDpps of SEQ ID Nos: 51-58, respectively. The data was fitted by steady state analysis, which is depicted in each of FIGS. […], 12F, 12H, 12J, 12L, 12N, and 12P for the corresponding DBDpp.
With B23, the Kd (in general, the free concentration of one partner at which half of the binding sites on the other are occupied at equilibrium, for simple one-to-one binding) was found to be 770 nM.
B24: the dissociation constant (Kd) was 1000 nM.
Still for that read-out and setting: under B25 stands 1700 nM.

In another experiment the target is PD-L1 (target of Example 25) (UniProt Q9NZQ7 19-238, limits assumed). The experiment can be described thus: library selection; assay not described.
PD-L1 (target of Example 25), sequence (Q9NZQ7 19-238 limits assumed): as the sequence (Q9NZQ7 19-238 limits assumed) above
Regarding B26, the binding result is recorded as “binds”.
Same read-out and setting: under B27 stands “binds”; under B28, “binds”; under B29, “binds”.
Same read-out and setting: under B30 stands “binds”.

For the origin of these results see patent publication US20180251563A1 (SUBDOMAIN, published 2018).
